# In patent US20170189507A1, “NOVEL PEPTIDES AND COMBINATION OF PEPTIDES FOR USE IN IMMUNOTHERAPY AGAINST VARIOUS CANCERS” (immatics biotechnologies GmbH, priority 2015, published 2017):
# Biological target: HLA-A*02 (Homo sapiens, UniProt P04439, D140Y/D185E/D98H/E176V/E277Q/G131W/G231S/I119V/I121R/I166T/I218V/N151K/N90K/P208A/P217A/Q86G/Q94H/R138H/R169H)
# Assay: MHC binding assay (UV-ligand exchange, beta2m ELISA), HLA-A*02
# Settings: MHC class I binding score, peptide exchange yield
# Text: (§1) Candidate peptides for T cell based therapies according to the present invention were further tested for their MHC binding capacity (affinity). The individual peptide-MHC complexes were produced by UV-ligand exchange, where a UV-sensitive peptide is cleaved upon UV-irradiation, and exchanged with the peptide of interest as analyzed. Only peptide candidates that can effectively bind and stabilize the peptide-receptive MHC molecules prevent dissociation of the MHC complexes. To determine the yield of the exchange reaction, an ELISA was performed based on the detection of the light chain ([…] of stabilized MHC complexes. The assay was performed as generally described in Rodenko et al. (Rodenko et al., 2006).
# (§2) 96 well MAXISorp plates (NUNC) were coated over night with 2 ug/ml streptavidin in PBS at room temperature, washed 4× and blocked for 1 h at 37° C. in 2% BSA containing blocking buffer. Refolded HLA-A*02:01/MLA-001 monomers served as standards, covering the range of 15-500 ng/ml. Peptide-MHC monomers of the UV-exchange reaction were diluted 100 fold in blocking buffer. Samples were incubated for 1 h at 37° C., washed four times, incubated with 2 ug/ml HRP conjugated anti-β2m for 1 h at 37° C., washed again and detected with TMB solution that is stopped with […]. Absorption was measured at 450 nm. Candidate peptides that show a high exchange yield (preferably higher than 50%, most preferred higher than 75%) are generally preferred for a generation and production of antibodies or fragments thereof, and/or T cell receptors or fragments thereof, as they show sufficient avidity to the MHC molecules and prevent dissociation of the MHC complexes.
row,Peptide exchange,Substance
1,++++ (>=75% = ++++),147 (YLMDDTVEI; listed as Homo sapiens) [compound 147]
2,++++ (>=75% = ++++),16 (YTLDIPVLFGV; listed as Homo sapiens) [compound 16]
3,++++ (>=75% = ++++),112 (SLGKFTFDV; listed as Homo sapiens) [compound 112]
4,++++ (>=75% = ++++),125 (SLADYEHFV; listed as Homo sapiens) [compound 125]
5,++++ (>=75% = ++++),1 (LLYPEPWSV; listed as Homo sapiens) [compound 1]
6,++++ (>=75% = ++++),248 (YLDRFLAGV; listed as Homo sapiens) [compound 248]
7,++++ (>=75% = ++++),229 (AILAHLNTV; listed as Homo sapiens) [compound 229]
8,++++ (>=75% = ++++),126 (QMFQYFITV; listed as Homo sapiens) [compound 126]
9,++++ (>=75% = ++++),4 (KLMPGTYTL; listed as Homo sapiens) [compound 4]
10,++++ (>=75% = ++++),95 (GLLGSLFFL; listed as Homo sapiens) [compound 95]
11,++++ (>=75% = ++++),258 (LLSERFINV; listed as Homo sapiens) [compound 258]
12,++++ (>=75% = ++++),3 (KLEENGDLYL; listed as Homo sapiens) [compound 3]
13,++++ (>=75% = ++++),92 (GLLFSLRSV; listed as Homo sapiens) [compound 92]
14,++++ (>=75% = ++++),12 (GLLPLLHRA; listed as Homo sapiens) [compound 12]
15,++++ (>=75% = ++++),245 (SLLDLPLSL; listed as Homo sapiens) [compound 245]
16,+ (<20% = +),82 (FIFDEAEKL; listed as Homo sapiens) [compound 82]
17,+ (<20% = +),120 (VTPVTVSAV; listed as Homo sapiens) [compound 120]
18,+ (<20% = +),42 (LLDSVSRL; listed as Homo sapiens) [compound 42]
19,++++ (>=75% = ++++),34 (FLLATEVVTV; listed as Homo sapiens) [compound 34]
20,++++ (>=75% = ++++),14 (ILAKDLFEI; listed as Homo sapiens) [compound 14]
21,++++ (>=75% = ++++),133 (ALLPRLHQL; listed as Homo sapiens) [compound 133]
22,++++ (>=75% = ++++),153 (FISERVEVV; listed as Homo sapiens) [compound 153]
23,++++ (>=75% = ++++),257 (GLYTDPCGV; listed as Homo sapiens) [compound 257]
24,++++ (>=75% = ++++),84 (ALCPRIHEV; listed as Homo sapiens) [compound 84]
25,+ (<20% = +),100 (ALLGMIIVGV; listed as Homo sapiens) [compound 100]
26,++++ (>=75% = ++++),129 (RLQDILWFL; listed as Homo sapiens) [compound 129]
27,++++ (>=75% = ++++),249 (GLCERLVSL; listed as Homo sapiens) [compound 249]
28,++++ (>=75% = ++++),51 (LLFSRLCGA; listed as Homo sapiens) [compound 51]

# Test system: CD8+ T cells
# Assay: In vitro immunogenicity: T-cell priming with aAPCs loaded with peptide/MHC complexes and anti-CD28 antibody, pMHC multimer readout
# Type: cell-based, human
# Settings: CD8+ T cells of healthy donors, three stimulation cycles, multimer staining; Table 19A
# Experimental: In an aspect, the peptides are pre-screened for immunogenicity before being included in the warehouse. By way of example, and not limitation, the immunogenicity of the peptides included in the warehouse is determined by a method comprising in vitro T-cell priming through repeated stimulations of CD8+ T cells from healthy donors with artificial antigen presenting cells loaded with peptide/MHC complexes and anti-CD28 antibody.
# In order to obtain information regarding the immunogenicity of the TUMAPs of the present invention, the inventors performed investigations using an in vitro T-cell priming assay based on repeated stimulations of CD8+ T cells with artificial antigen presenting cells (aAPCs) loaded with peptide/MHC complexes and anti-CD28 antibody.
# In order to perform in vitro stimulations by artificial antigen presenting cells loaded with peptide-MHC complex (pMHC) and anti-CD28 antibody, the inventors first isolated CD8+ T cells from fresh HLA-A*02 leukapheresis products via positive selection using CD8 microbeads (Miltenyi Biotec, Bergisch-Gladbach, Germany) of healthy donors obtained from the University clinics Mannheim, Germany, after informed consent.
# PBMCs and isolated CD8+ lymphocytes were incubated in T-cell medium (TCM) until use consisting of RPMI-Glutamax (Invitrogen, Karlsruhe, Germany) supplemented with 10% heat inactivated human AB serum (PAN-Biotech, Aidenbach, Germany), 100 U/ml Penicillin/100 μg/ml Streptomycin (Cambrex, Cologne, Germany), 1 mM sodium pyruvate (CC Pro, Oberdorla, Germany), 20 μg/ml Gentamycin (Cambrex). 2.5 ng/ml IL7 (PromoCell, Heidelberg, Germany) and 10 U/ml IL-2 (Novartis Pharma, Nurnberg, Germany) were also added to the TCM at this step.
# Generation of pMHC/anti-CD28 coated beads, T-cell stimulations and readout was performed in a highly defined in vitro system using four different pMHC molecules per stimulation condition and 8 different pMHC molecules per readout condition.
# The purified co-stimulatory mouse IgG2a anti human CD28 Ab 9.3 (Jung et al., 1987) was chemically biotinylated using Sulfo-N-hydroxysuccinimidobiotin as recommended by the manufacturer (Perbio, Bonn, Germany). Beads used were 5.6 μm diameter streptavidin coated polystyrene particles (Bangs Laboratories, Illinois, USA).
# pMHC used for positive and negative control stimulations were A*0201/MLA-001 (peptide […] (SEQ ID NO. 303) from modified Melan-A/MART-1) and A*0201/DDX5-001 ([…] from DDX5, SEQ ID NO. 304), respectively.
# 800.000 beads/200 μl were coated in 96-well plates in the presence of 4×12.5 ng different biotin-pMHC, washed and 600 ng biotin anti-CD28 were added subsequently in a volume of 200 μl. Stimulations were initiated in 96-well plates by co-incubating […] CD8+ T cells with 2×10^5 washed coated beads in 200 μl TCM supplemented with 5 ng/ml IL-12 (PromoCell) for 3 days at 37° C. Half of the medium was then exchanged by fresh TCM supplemented with 80 U/ml IL-2 and incubating was continued for 4 days at 37° C. This stimulation cycle was performed for a total of three times. For the pMHC multimer readout using 8 different pMHC molecules per condition, a twodimensional combinatorial coding approach was used as previously described (Andersen et al., 2012) with minor modifications encompassing coupling to 5 different fluorochromes. Finally, multimeric analyses were performed by staining the cells with Live/dead near IR dye (Invitrogen, Karlsruhe, Germany), CD8-FITC antibody clone SK1 (BD, Heidelberg, Germany) and fluorescent pMHC multimers. For analysis, a BD LSRII SORP cytometer equipped with appropriate lasers and filters was used. Peptide specific cells were calculated as percentage of total CD8+ cells. Evaluation of multimeric analysis was done using the FlowJo software (Tree Star, Oregon, USA). In vitro priming of specific multimer+ CD8+ lymphocytes was detected by comparing to negative control stimulations.
row,Substance,Wells (in vitro immunogenicity of HLA class I peptides)
1,291 (KLDETGNSL; listed as Homo sapiens) [compound 291],+ (<20% = +)
2,301 (AYKPGALTF; listed as Homo sapiens) [compound 301],+ (<20% = +)
3,295 (YYPGVILGF; listed as Homo sapiens) [compound 295],++ (20%-49% = ++)
4,298 (RYLEGTSCI; listed as Homo sapiens) [compound 298],+ (<20% = +)
5,296 (TYVDSSHTI; listed as Homo sapiens) [compound 296],+ (<20% = +)

# Same assay, conditions: in vitro immunogenicity of HLA class I peptides; peptide-specific multimer+ wells after aAPC priming of CD8+ T cells
row,Substance,Wells positive [%]
1,165 (DYTTWTALL; listed as Homo sapiens) [compound 165],+ (<20% = +)
2,163 (DYLKGLASF; listed as Homo sapiens) [compound 163],+ (<20% = +)
3,4 (KLMPGTYTL; listed as Homo sapiens) [compound 4],+ (<20% = +)
4,204 (TYELRYFQI; listed as Homo sapiens) [compound 204],+ (<20% = +)
5,12 (GLLPLLHRA; listed as Homo sapiens) [compound 12],++++ (>=70% = ++++)
6,159 (LYNKGFIYL; listed as Homo sapiens) [compound 159],++++ (>=70% = ++++)
7,196 (LYIDRPLPYL; listed as Homo sapiens) [compound 196],++++ (>=70% = ++++)
8,167 (NYINRILKL; listed as Homo sapiens) [compound 167],+ (<20% = +)
9,230 (KLQNIMMLL; listed as Homo sapiens) [compound 230],++++ (>=70% = ++++)
10,197 (EYSLFPGQVVI; listed as Homo sapiens) [compound 197],+ (<20% = +)
11,158 (HYSQELSLLYL; listed as Homo sapiens) [compound 158],+ (<20% = +)
12,26 (ALQEELTEL; listed as Homo sapiens) [compound 26],+ (<20% = +)
13,249 (GLCERLVSL; listed as Homo sapiens) [compound 249],+ (<20% = +)
14,23 (SLFSDEFKV; listed as Homo sapiens) [compound 23],++++ (>=70% = ++++)
15,35 (FLLPFSTVYL; listed as Homo sapiens) [compound 35],+ (<20% = +)

# Test system: HLA-A*24
# Assay: MHC binding assay (UV-ligand exchange, beta2m ELISA), HLA-A*24
# Design: species or system human
# Settings: MHC class I binding score, peptide exchange yield
# Text: as §1, §2
row,Peptide exchange,Substance
1,++++ (>=75% = ++++),165 (DYTTWTALL; listed as Homo sapiens) [compound 165]
2,++++ (>=75% = ++++),163 (DYLKGLASF; listed as Homo sapiens) [compound 163]
3,++++ (>=75% = ++++),204 (TYELRYFQI; listed as Homo sapiens) [compound 204]
4,++++ (>=75% = ++++),159 (LYNKGFIYL; listed as Homo sapiens) [compound 159]
5,++++ (>=75% = ++++),167 (NYINRILKL; listed as Homo sapiens) [compound 167]
6,++++ (>=75% = ++++),158 (HYSQELSLLYL; listed as Homo sapiens) [compound 158]
